Test results from publication doi:10.1101/2025.03.03.641048.

Molecular target: IE-3 fragment antigen-binding (Fab) region, recombinant, labelled
Assay: MST

fold higher affinity than MBP-mZP2(T103-Q138): 30 fold
B1: mouse ZP2 N-terminal ZP-N1 domain (mZP2-N1), His-tagged (domain or fragment)
chain: VSLPQSENPAFPGTLICDKDEVRIEFSSRFDMEKWNPSVVDTLGSEILNCTYALDLERFVLKFPYETCTIKVVGGYQVNIRVGDTTTDVRYKDDMYHFFCPAIQ
